In publication doi:10.1101/2022.07.21.500988, “Molecular insight into the enzymatic macrocyclization of multiply backbone N-methylated peptides” (bioRxiv, 2022):

Target: T1, OphP(S580A) (Omphalotus olearius, S580A)
T1 construct: also called OphP variant S580A
T1 chain: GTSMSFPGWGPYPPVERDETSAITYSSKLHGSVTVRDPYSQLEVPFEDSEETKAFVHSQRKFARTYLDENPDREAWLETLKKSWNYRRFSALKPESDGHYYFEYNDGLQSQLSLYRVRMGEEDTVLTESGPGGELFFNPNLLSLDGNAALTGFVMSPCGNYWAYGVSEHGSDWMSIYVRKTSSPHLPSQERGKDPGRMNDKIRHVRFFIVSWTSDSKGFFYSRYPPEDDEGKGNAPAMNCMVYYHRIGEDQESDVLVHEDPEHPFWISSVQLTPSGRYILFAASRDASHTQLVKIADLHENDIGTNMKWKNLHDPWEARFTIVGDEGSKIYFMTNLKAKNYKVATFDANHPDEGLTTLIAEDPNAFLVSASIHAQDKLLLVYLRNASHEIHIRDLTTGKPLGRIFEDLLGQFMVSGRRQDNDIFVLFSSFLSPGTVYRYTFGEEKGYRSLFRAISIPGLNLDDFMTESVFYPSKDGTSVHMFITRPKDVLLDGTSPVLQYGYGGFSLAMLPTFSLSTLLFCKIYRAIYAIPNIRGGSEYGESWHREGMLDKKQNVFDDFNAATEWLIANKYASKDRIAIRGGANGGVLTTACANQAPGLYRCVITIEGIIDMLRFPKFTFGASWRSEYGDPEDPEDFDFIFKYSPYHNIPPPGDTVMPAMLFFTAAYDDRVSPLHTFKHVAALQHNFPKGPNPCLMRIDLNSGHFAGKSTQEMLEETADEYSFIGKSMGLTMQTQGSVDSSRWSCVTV
Test: crystal structure
Settings: both partners purified

WVIVVGVIGVIGSVMSTE (also called 18mer^CF) [Oph-18mer^NL]: binds.

GFPWVIVVGVIGVIG [Oph-15mer]: binds.
